Measurements reported in the DeepSol protein solubility set.

Assay: soluble on expression in E. coli; label from the status in PepcDB or PDB records

With “MKPLSSPLQQYWQTIVERLPEPLAEESLSAQAKSVLTFSDFVQDSISAHPEWLTELESQPPQADEWQHYVAWLQEALINVSDEAGLMRELRLFRRRIMVRIAWAQTLALVTEESILQQLSYLAETLIVAARDWLYDACCREWGTPCNAQGEAQPLLILGMGKLGGGELNFSSDIDLIFAWPEHGCTQGGRWELDNAQFFTRMGQRLIKVLDQPTQDGFVYRVDMRLRPFGESGPLVLSFAALEDYYQEQGRDWERYAMVKARIMGDSEGVYANELRAMLRPFVFRRYIDFSVIQSLRNMKGMIAREVRRRGLTDNIKLGAGGIREIEFIVQVFQLIRGGREPSLQSRSLLPTLSVIAALHLLSENDAEQLRVAYLFLRRLENLLQSINDEQTQTLPSDELNRARLAWAMDFADWPQLTGALTAHMTNVRRVFNELIGDDESETQEESLSEQWRELWQDALQEDDTTPVLAHLSEDDRKQVLTLIADFRKELDKRTIGPRGRQVLDHLMPHLLSDVCAREDAAVTLLRITALLAGIVTRTTYLELLSEFPAALKHLISLCAASPMIASQLARYPLLLDELLDPNTLYQPTATDAYRDELRQYLLRVPEDDEEQQLEALRQFKQAQLLRIAAADIAGTLPVMKVSDHLTWLAEAMIDAVVQQAWVQMVARYGKPNHLNEREGRGFAVVGYGKLGGWELGYSSDLDLIFLHDCPMDAMTDGEREIDGRQFYLRLAQRIMHLFSTRTSSGILYEVDARLRPSGAAGMLVTSTEAFADYQKNEAWTWEHQALVRARVVYGDPQLTAHFDAVRREIMTLPREGKTLQTEVREMREKMRAHLGNKHRDRFDIKADEGGITDIEFITQYLVLRYAHEKPKLTRWSDNVRILELLAQNDIMEEQEAMALTRAYTTLRDELHHLALQELPGHVPEDCFTAERELVRASWQKWLVEE” the “soluble on expression in E. coli” value was “not soluble”.

With “MNDELKNKSGKVKVMYVRSDDDSDKRTHNPRTGKGGGRPAKSRTDGGRRPARDERNNQSRDRKHETSPWRTVSRAPGDETPEKVDHGGISGKSFIDPEVLRRQRAEETRVYGENACQALFQSRPDAIVRAWFIQSVTPRFKEALRWMAANRKAYHVVDEAELAKASGTEHHGGVCFLIKKRNGTTVKQWVKQAADQDCVLALEDVANPHNLGGMMRSCAHFGVKGVVVQDAALLESGAAIRTAEGGAEHVQPITGESIVDVLDDFRQAGYTVVTTSSDRGQALFSTTLPEKMVLVLGREYDYLPEAAREPDDLCVKINGTGNVESLNVSVATGVLLAEWWRQNKA” the “soluble on expression in E. coli” value was “not soluble”.

With “MKFFSAAAFVAALVASGNACIGGGAGGAGGCCPPAQPGCGNPCQGAGPQYAAAPPPPPQYAAAPQGGAYPTAGK” the “soluble on expression in E. coli” value was “not soluble”.

With “MGSDKIHHHHHHMALEDKDLRSIQEVRNLIESANKAQKELAAMSQQQIDTIVKAIADAGYDAREKLAKMAHEETGFGIWQDKVIKNVFASKHVYNYIKDMKTIGMLKEDNEKKVMEVAVPLGVVAGLIPSTNPTSTVIYKTLISIKAGNSIVFSPHPNALKAILETVRIISEAAEKAGCPKGAISCMTVPTIQGTDQLMKHKDTAVILATGGSAMVKAAYSSGTPAIGVGPGNGPAFIERSANIPRAVKHILDSKTFDNGTICASEQSVVVERVNKEAVIAEFRKQGAHFLSDAEAVQLGKFILRPNGSMNPAIVGKSVQHIANLAGLTVPADARVLIAEETKVGAKIPYSREKLAPILAFYTAETWQEACELSMDILYHEGAGHTLIIHSEDKEIIREFALKKPVSRLLVNTPGALGGIGATTNLVPALTLGCGAVGGSSSSDNIGPENLFNIRRIATGVLELEDIRKEENQATPELSVDADALIQSLVEKVLAELK” the “soluble on expression in E. coli” value was “not soluble”.

With “MSASKILSQKIKVALVQLSGSSPDKMANLQRAATFIERAMKEQPDTKLVVLPECFNSPYSTDQFRKYSEVINPKEPSTSVQFLSNLANKFKIILVGGTIPELDPKTDKIYNTSIIFNEDGKLIDKHRKVHLFDVDIPNGISFHESETLSPGEKSTTIDTKYGKFGVGICYDMRFPELAMLSARKGAFAMIYPSAFNTVTGPLHWHLLARSRAVDNQVYVMLCSPARNLQSSYHAYGHSIVVDPRGKIVAEAGEGEEIIYAELDPEVIESFRQAVPLTKQRRFDVYSDVNAH” the “soluble on expression in E. coli” value was “soluble”.

For “MPLVVNVLSTPLNAQPTRTAGFTLPEMMLALSFGSLIALSTAQVLPKLSQQISVLQQHYRLELVMNQAMGAMEKDLRRAGFCHGKCQGEAITIEHYLGETAHSCLIVAYDLNCNGRWEGAKHQESEYFGYRLRNKALESQRGELNCHGRGWEKLFDPRDVTVTHFSVTPLSGQLFKLRLVGHKTGNPAIHHQVTYLIRGNNV”, the “soluble on expression in E. coli” value was “not soluble”.

For “MGSDKIHHHHHHMTEPTRHQEHETETQEADLPNVCVVTHPLAAAGENATRSLLDILSAITSVALVTADLPADSEIRDRHELVELTQKGAGDSVVIAAFRFLLNQLRMCRVIAGRDEDVVLFFGATSYLLPIVVTRLLGKTVLVEPRGDVPLTLRLNWEQQLPDQVAAVLAGAVRALERAGFAVAHGVITYTPEMARQLDLHPESPSVYPTGARYVRTNEFCVQRPYADRDRVVGFLGRLDEEKGVRELAAVATQLPDDITFRFVGDGDLREWLEEDLAADIEAGHVELTGWVDHDKVPHALNDLELLILPSQPTEGLPTTILEALACGTPVYASPVSGVPDVVRDEETGFTIDSRESTALAAGIERILDRNDLAAISENGRTLIEREYSFDAACERYRGILRSVAGYSS”, the “soluble on expression in E. coli” value was “not soluble”.

With “MNATPEKADDLIVVGKIFSVHGVRGEVKVYSFTDPIENLLDYPRWTLRHEGKVKQVELVSGRGSQKGLVVKLKGLDDRDEARLLSGYEICIPRSLLPNLAADEYYWYQLVGLKVINQDEQLFGKVDHLLETGANDVMVVKPCAGSLDDRERLLPYTEQCVLAIDLEAGVMRVEWDADFLEHHHHHH” the “soluble on expression in E. coli” value was “soluble”.

In the case of “GNSKSGALSKEILEELQLNTKFTEEELSSWYQSFLKECPSGRITRQEFQTIYSKFFPEADPKAYAQHVFRSFDANSDGTLDFKEYVIALHMTSAGKTNQKLEWAFSLYDVDGNGTISKNEVLEIVTAIFKMISPEDTKHLPEDENTPEKRAEKIWGFFGKKDDDKLTEKEFIEGTLANKEILRLIQFEPQKVKEKLKEKKL”, the “soluble on expression in E. coli” value was “soluble”.

For “MGSDKIHHHHHHACTDGINETVISAYQLPVLPEPSYKFSRNGESSVNVLECGFLKSPIDRIFSEYMNEARMSTKRDYDEALRIYHEGNFGLKPQKEVSASSKHLKDRDKILKDIDAWFETSARIAGLGANIPSYEHRNREAVKGLTGYVGNGIGDKDICYVDERGIAVAEVYKYAIMGAIYLDKILNIHLSEQILENNEVLVRNDLTQLLPGHNYTELEHHWDLAYGYYDFWKTLAQSDGLPALKDCHLRISRSFVKGRALMTTSQYDEMRLQADTIRQELSRVVAVRAMHLLVGPNTLANLKENPRRAFRLLSQAYGLIYAAQFARNMEGKSFLTNEETGILLHELEKGDGLWDKERLLGREQTEGALYNLAVRIGEKFDVSPEDIKK”, the “soluble on expression in E. coli” value was “not soluble”.

In the case of “MSLVNMEFLKRSFAPLTEKQWQEIDNRAREIFKTQLYGRKFVDVEGPYGWEYAAHPLGEVEVLSDENEVVKWGLRKSLPLIELRATFTLDLWELDNLERGKPNVDLSSLEETVRKVAEFEDEVIFRGCEKSGVKGLLSFEERKIECGSTPKDLLEAIVRALSIFSKDGIEGPYTLVINTDRWINFLKEEAGHYPLEKRVEECLRGGKIITTPRIEDALVVSERGGDFKLILGQDLSIGYEDREKDAVRLFITETFTSRLSTRRPEGHHHHHH”, the “soluble on expression in E. coli” value was “soluble”.

In the case of “MIPLKYLQAYPASLQDQVRQLIAENRLGEYLERRYPGRHDVQSDKALYAYTMNLKQEHLRNAPGLDKVLYDNKLDVVQRALGLHTAISRVQGGKLKAKKEIRVASLFKDAAPEFLRMIVVHELAHLKESEHNKAFYQLCQYMLPDYHQLEFDLRVYLTWKSLAAALEHHHHHH”, the “soluble on expression in E. coli” value was “not soluble”.

With “MGSDKIHHHHHHMSAALSHWRRWPSVANYGKKRFDIHQSSLKKRQGLMTPHFFGFGSLVNTATHVYGNTRPARLEGWRRTWVRTPDRSMAFLSVTPAPGHVIEGLLAAVPNGDWAALDERETGYVRVDVTPQVAHDMAPAPQISLYQVPEESHDRNARDHKILLSYLDVVLRGYREVFGDTGAEAFMATTDGWDTPILNDRATPYYPRHQVMTPDEHALHDALIAEAGAQVLAGGE” the “soluble on expression in E. coli” value was “not soluble”.

With “MNIAVASGKGGTGKTTVAVNLAASYAMQGLPVTLVDCDVEEPNAHLFVDARWQVRSLCGVPVPAIDPDRCLGESCRRCVEACRFKALAMLGGELLVFAELCHGCGLCELVCPAGVVGTASRPVGEVRQGVASCHVHGETCHMAFRDGVLRVGEAMATPLIKAVKRTAEDANATSHAGYGVTLWDCPPGTACATINALDEADFVVLVAESTAFGLHDLRLAVGLVCHLGLPHGIVINRFGMGDDRVATWAASEGIDVLGRLPFSLEAASRNAGGGLLLDASHDLEAAYRDLGARLLEKGIRSLEHHHHHH” the “soluble on expression in E. coli” value was “not soluble”.

In the case of “MGSDKIHHHHHHANSTNTIVSTSNMASTAYTRKSATGWTYNLGGTATNMTFGKKTHYLKNYPNTTWHATKKRYIIKKNGVKYLYYYVTNGRKTAAGWIWHGYLQKKSYAHTATTTSSTGTGTYDSILKAAKTQLGKPYAYGGNGPSAFDCSGFTKYVFNQAIGQTLPRTAQAQYDSYTHVSAANAKAGDLIFFGTSASNITHCGIYLGNHKMIDAQLNGVITEATNVSWWHTVGYSRPATLS”, the “soluble on expression in E. coli” value was “not soluble”.

For “MSLNAQTKSLHQLQQEFVDLRCGMFIHFNMPTFFNEDWPDPDAAPELFNPVRMDCKQWAKAAKSANMTYGCLTTKHHSGFCIWDTKTTDYSVMSSPFKRDVVKEYADAFRAEGMKVMLYYSILDTHARLRPKCITPQHIEMIKEQLRELLTNYGEITALIIDGWDAPWSRISYDDVPFEDIYRLVKSIQPNCLVMDLNAAKYPAEALFYTDIKSYEQGAGQHISKDTNRLPALSCLPLQQNWFWKESFPTTPVKSPAQMVNDNIIPMGKSYCNFILNVAPNRDGLMDANALKALKEIGKLWKNDGRVATVPEADAPIISSNIAKYQPAEGTWSSDYAIMDFANDDDFGTCWNSNPEVKVPWYSVTFEREKSFNMVVITDRNNDRLQEYRLEYRAGGTWKPLYEGKAPTGLRVKIHRFDTVWGDAVRMTVLNSNGTTSIAEFGVYCEREGHHHHHH”, the “soluble on expression in E. coli” value was “soluble”.

For “MSLAKLRPTKTFKPKPPAGLPDRETLLAFLRDAGETGKADIARHFGLKGADRRALREMIRELEAQGALAKRGRKGFAEAGSLPPVGVADVVERDGDGELYVKLTKSDDDVPNVRLAPGKGEAAAGAPGLGDRLLVRFERLETGEFEAKLIKKLGQSAHKILGVIRKHRREVRVEPVDRKSKESLVLDPSVAHDFKEGDLVLAQVGTHGGRYGPKPGKVLEVVGTENDPRAASLIAIHSHGIPTGFSEAAEAEAKTAVEPTLAGREDLRDLPFVTIDPVDARDHDDAVYAHPDEDETNKGGFVVWVAIADVAAYVRPGSALDRDAREKGNSVYFPDRVEPMLPETLSNGLCSLRESENRATLAVRMVFDKSGRKKGHRFVRGLMRSAAKLSYEQAQAAIDGQPDDKAGPLLDPILKPLWDAYRTMKIGRDARSPLAIESDERRIIIKGGEITSITKRASLEAHKLIEEMMVQANVCAAESLEAKRSPLIYRVHDTPSLEKVQNLADFLQTLEIRWSKGEAPQTARFNKLLEETRESPNAAIINEVVLRTQMQAHYSADNIGHFGLNLAKYAHFTSPIRRYADLIVHRGLIRALGLGTDGLTDQDIAQIKDTAEVITHAERRAMAAERDATDRYIAAFLADRVGATFEGRITGVTRFGLFIKLADTGADGLVPVSSLGQEFFVHDDKMHALVGERTGKRWPLGLSVEVKLVEATPVTGGLLFEMLSEPLPPDPKMPRPRLGARRQAAVKPRGGLPKGVRRGKRREGHHHHHH”, the “soluble on expression in E. coli” value was “soluble”.
